The values that follow come from article PMC8945367, “Transcription Regulation of Tceal7 by the Triple Complex of Mef2c, Creb1 and Myod” (Biology, 2022).

This assay concerns the target 3×HA-Creb1 (UniProt Q01147-2 1-327). Nature of the assay: cell-based or functional assay.

Sequence of 3×HA-Creb1 (Q01147 whole entry): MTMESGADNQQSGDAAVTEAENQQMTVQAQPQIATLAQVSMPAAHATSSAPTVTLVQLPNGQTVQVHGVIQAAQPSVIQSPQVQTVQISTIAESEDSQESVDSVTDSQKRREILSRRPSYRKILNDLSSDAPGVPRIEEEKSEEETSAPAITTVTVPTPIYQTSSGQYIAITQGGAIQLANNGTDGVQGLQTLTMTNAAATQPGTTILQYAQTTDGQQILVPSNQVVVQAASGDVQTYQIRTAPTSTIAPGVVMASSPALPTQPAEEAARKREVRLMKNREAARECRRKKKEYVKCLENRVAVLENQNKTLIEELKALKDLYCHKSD

B1: 6×Myc-Mef2c (natural protein)
chain: not shown
On to B1, for which the “transactivation of Reporter II (4×(Mef2#3–CRE#3–E#4) luciferase) by Mef2c and Creb1 together in HEK293T cells; 2.8-fold by Mef2c and 3.7-fold by Creb1 alone” value was 8.3 fold.
